Experiments:
[1] = tested on: PD-1positive transduced NK-92 cells; experiment: IFN gamma secretion assay in PD-1 positive transduced NK-92 cells (Example 17); assay type: cell-based, human
Method: To show selectivity of the anti-PD1-IL18 immunocytokine (IC) for PD-1 positive cells, the NK-92 cell line was used to generate a PD-1 expressing cell line and furthermore, to measure IFN[…] release upon incubation with IL-18 variants and ICs.
On the day of experiment, parental PD-1negative and PD-1positive transduced cells were harvested and washed with PBS 1× and resuspended in medium (w/o IL-2) containing 1 ng/ml of recombinant human Interleukin-12 (SinoBiologicals, Cat #CT011-H08H). After counting, cells were seeded at 100 000 cells/well in a 384 well culture plate and incubated at 37° C./5% CO2. When indicated, cells were preincubated with anti-PD-1 antibody LZM-009 at 17 uM during 30 min at 37° C. […] The lowest concentration assessed was 0.8 fM.
(§1) After 16-20 h incubation at 37° C./5% CO2, 5 μl of supernatant were carefully transferred to a 384 microwell OptiPlate (Perkin Elmer; Cat #6007270) and Interferon-gamma (IFNγ) levels were measured using the Human IFNγ AlphaLISA Assay Kit (Perkin Elmer, Cat #AL217C). […] AlphaLISA signal was then measured on an Enspire plate reader (Perkin Elmer) using 680 and 615 nm as excitation and emission wavelengths respectively. Half maximal effective concentration (EC50) was calculated based on a variable slope, four parameter analysis using GraphPad PRISM software.

[2] = tested on: PD-1positive transduced NK-92 cells; experiment: IL-18BP mediated inhibition of IFN gamma secretion in PD-1 positive transduced NK-92 cells (Example 18); assay type: cell-based, human
Method: To characterize the resistance of anti-PD1-IL18 immunocytokines (IC) on PD-1 positive cells, the NK-92 cell line was used to generate a PD-1 expressing cell line and furthermore, to measure the inhibition of IFN[…] release upon incubation with IL-18 variants and ICs in the presence of increasing quantities of human IL-18BP.
On the day of experiment, parental PD-1^negative and PD-1^positive transduced cells were harvested and washed with PBS 1× and resuspended in medium (w/o IL-2) containing 1 ng/ml of recombinant human Interleukin-12 (SinoBiologicals, Cat #CT011-H08H). After counting, cells were seeded at 100 000 cells/well in a 384 well culture plate and incubated at 37° C./5% CO2. When indicated, cells were preincubated with anti-PD-1 antibody LZM-009 at 17 uM during 30 min at 37° C. […]
as §1, with “OptiIPlate” for “OptiPlate”, “levels” for “levels were”, “inhibitory” for “effective”, “(IC50)” for “(EC50)”

EC50 ([1]; IFNγ secretion): 0.0028 nM | PD-1^neg/PD-1^pos EC50 ratio ([1]; NK-92 cells): 0.9 | IC50 ([2]; IL-18BP-mediated inhibition of IFNγ secretion, IL-18 analyte 1 nM): 80.3 nM | PD-1^pos/PD-1^neg IC50 ratio ([2]; NK-92 cells): 1.0
B1: SEQ ID NO: 30: IL-18 polypeptide: E6K, V11I, C38A, K53A, T63A, C76A, C127A (protein)
chain: YFGKLKSKLSIIRNLNDQVLFIDQGNRPLFEDMTDSDARDNAPRTIFIISMYADSQPRGMAVAISVKCEKISTLSAENKIISFKEMNPPDNIKDTKSDIIFFQRSVPGHDNKMQFESSSYEGYFLAAEKERDLFKLILKKEDELGDRSIMFTVQNED

— patent US20250186597A1, “TARGETED IMMUNE ACTIVATION WITH IL-18 IMMUNOCYTOKINES” (BRIGHT PEAK THERAPEUTICS AG, priority 2023, published 2025)
